Assay [1] deals with mammalian wild-type HSP60 purified from porcine liver (porcine).
Assay [2] has the same target. Kind of assay: transmission electron microscopy; HSP60 alone, without nucleotide (Figure S1A).
Assay [3] has the same target. Kind of assay: transmission electron microscopy; HSP60 alone with ATP; side views classified, over 100 molecules counted.
For assay [4] the target is unchanged. The experiment in a line: transmission electron microscopy; HSP60 alone with GTP; side views classified, over 100 molecules counted.
The target is the same in assay [5]. Kind of assay: transmission electron microscopy; HSP60 with HSP10 and ATP; side views classified, over 100 molecules counted.

One may read the stoichiometry N as a count of units in the complex or per binding partner.

As to “mammalian wild-type HSP10 purified from porcine liver (from UniProt F1SMZ6 1-102) (natural protein)”, in assay [1], the refolding yield of chemically denatured rhodanese by HSP60/HSP10 in the presence of GTP (recovery of enzymatic activity, 60 min) amounted to 40%.
In assay [2], “mammalian wild-type HSP60 purified from porcine liver (natural protein)” had a stoichiometry N of 7. For the same substance, in assay [3], the percent of HSP60 as double-ring (HSP60 14) was found to be 40% and the stoichiometry N was 14. The same substance registered a percent of HSP60 as double-ring in assay [4] of 20%. The substance further had a percent of HSP60 in double-ring structures in assay [5] of 70%.

(Values after PMC5717063.)
